Earlier results, collected in paper PMC3153048.

Legend:
[1] = target: ExsD (Pseudomonas aeruginosa) (UniProt Q9I321)
[2] = target: ExsE (Pseudomonas aeruginosa) (UniProt Q9I322)
Chain of UniProt Q9I322 (Q9I322 whole entry): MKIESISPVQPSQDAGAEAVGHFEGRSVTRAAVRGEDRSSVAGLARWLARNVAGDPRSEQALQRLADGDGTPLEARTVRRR

Chain of UniProt Q9I321 (Q9I321 whole entry): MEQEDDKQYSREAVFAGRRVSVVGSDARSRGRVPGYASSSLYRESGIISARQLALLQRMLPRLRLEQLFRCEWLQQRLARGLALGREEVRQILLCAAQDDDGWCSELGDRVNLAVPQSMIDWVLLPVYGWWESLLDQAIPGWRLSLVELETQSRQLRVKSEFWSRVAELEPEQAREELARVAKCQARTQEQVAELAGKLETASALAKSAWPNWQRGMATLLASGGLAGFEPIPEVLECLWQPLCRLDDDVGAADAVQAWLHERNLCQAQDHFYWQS

## ExsC (from UniProt P26995)
[1]
  Kd: 18 nM
[2]
  Kd: 1 nM
